Data published in patent US20030023038A1 (Biogen, published 2003).

Tests used:
[1] = target: T1, human soluble myc-BAFF Q136 (human, UniProt Q9Y275 136-285); experiment: co-transfection in 293T, anti-FLAG (M2) immunoprecipitation of conditioned media, western blot with anti-myc 9E10
T1 construct: also called plasmid #JST556
Excerpt: Plasmids encoding the following human soluble TNF family ligands were constructed with the indicated N-terminal epitope tags beginning at the ligand amino acid residue indicated in a PCR3 based mammalian cell expression vector: FLAG-APRIL, beginning with residue A105 (plasmid #LT033) or H115 (plasmid #LT038), FLAG-TWEAK A106 (plasmid #PS288), myc-APRIL A105 (plasmid #JST557), and myc-BAFF Q136 (plasmid #JST556). […] At 48 hrs. post-transfection, conditioned media was collected and used for immunoprecipitation experiments. The immunoprecipitation samples contained 100 μl of conditioned media, 5 μg/ml of the anti-FLAG antibody M2 (Sigma, St Louis, Miss.) and 900 μl of DMEM containing 10% FCS, glutamine, Pen-Strep, G418 and sodium azide and were incubated at 4° C. for 1 hour, with agitation. Then, 30 μl of ProteinA-Sepharose beads (Amersham Pharmacia, Piscataway, N.J.) was added to the samples and the mixture was incubated overnight at 4° C. with agitation. The beads were collected by centrifugation and then washed one time with the DMEM media described above and then 3 times with PBS. The final pellet containing the beads was then suspended in 2× SDS non-reducing sample buffer and boiled for 5 minutes. […] The filter was again washed 3 times and then detected using ECL reagents (Amersham Pharmacia, Piscataway, N.J.). […]

[2] = target: human full length BAFF (construct PS544), found cleaved in the conditioned media (human, UniProt Q9Y275 134-285); experiment: co-transfection in 293T, anti-FLAG (M2) immunoprecipitation of conditioned media, western blot with anti-BAFF 53.14
Description: At 48 hrs. post-transfection, conditioned media was collected and used for immunoprecipitation experiments. The immunoprecipitation samples contained 200 μl of conditioned media, 5 μg/ml of the anti-FLAG antibody M2 (Sigma) and 800 μl of DMEM containing 10% FCS, glutamine, Pen-Strep, G418 and sodium azide and were incubated at 4° C. for 1 hour, with agitation. Then, 30 μl of ProteinA-Sepharose beads (Pharmacia) was added to the samples and the mixture was incubated overnight at 4° C. with agitation. The beads were collected by centrifugation and then washed one time with the DMEM media described above and then 3 times with PBS. The final pellet containing the beads was then suspended in 2× SDS non-reducing sample buffer and boiled for 5 minutes. The beads were spun out and 25 μl of the supernatant was loaded onto 2 separate 4-20% SDS-PAGE gradient gels (Novex). In order to examine the level of ligand expression, non-immunoprecipitated conditioned media from the co-transfected cells were also loaded. These samples were diluted two fold with 2× non-reducing sample buffer, boiled for 2 min. and then 25 μl was loaded into each lane. Each gel contained a set of immunoprecipitations and a set of non-immunoprecipitated conditioned media. […] The filters were again washed 3 times and then detected using ECL reagents (Amersham). […]

T1 sequence (Q9Y275 136-285): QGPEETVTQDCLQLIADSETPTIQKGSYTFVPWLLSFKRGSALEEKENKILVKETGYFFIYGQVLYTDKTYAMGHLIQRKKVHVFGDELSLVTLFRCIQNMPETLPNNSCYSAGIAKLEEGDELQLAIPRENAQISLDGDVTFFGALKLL

binding result [1]: no binding | binding result [2]: no binding
B1: soluble FLAG-tagged human TWEAK beginning at A106 (ligand, UniProt O43508 106-249, looked up, not shown: small tags and cut ends)
chain: AIAAHYEVHPRPGQDGAQAGVDGTVSGWEEARINSSSPLRYNRQIGEFIVTRAGLYYLYCQVHFDEGKAVYLKLDLLVDGVLALRCLEEFSATAASSLGPQLRLCQVSGLLALRPGSSLRIRTLPWAHLKAAPFLTYFGLFQVH
notes: also called FLAG-TWEAK A106; plasmid PS288
